System: Escherichia coli TOP10
Test: shrunken log2 fold change of peptide-encoding DNA abundance (4.5 h post-induction vs induction); higher = less antimicrobial activity (less host growth inhibition)
Conditions: time post-induction: 4.5 h; library: site-saturation at positions 5, 18, 19, 20
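Further: peptides expressed intracellularly from a pBAD plasmid library in pooled LB shake-flask culture, induced with 0.3% L-arabinose, DNA abundance read by NGS, three biological replicates, DESeq2 with apeglm shrinkage.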

RRIRRRPPRLPRPRPRPCCFPRP
shrunken log2 fold change: 0.151

RRIRCRPPRLPRPRPRPTANPRP
shrunken log2 fold change: 0.0466

RRIRRRPPRLPRPRPRPPLNPRP
shrunken log2 fold change: 0.696

RRIRLRPPRLPRPRPRPFFPPRP
shrunken log2 fold change: -0.225

RRIRPRPPRLPRPRPRPSPEPRP
shrunken log2 fold change: -0.0109

RRIRYRPPRLPRPRPRPKQCPRP
shrunken log2 fold change: -0.17

RRIRHRPPRLPRPRPRPCMHPRP
shrunken log2 fold change: -0.38

RRIRFRPPRLPRPRPRPNWYPRP
shrunken log2 fold change: -0.542

RRIRKRPPRLPRPRPRPIPMPRP
shrunken log2 fold change: 0.0472

RRIRSRPPRLPRPRPRPRWTPRP
shrunken log2 fold change: 0.0635

RRIRTRPPRLPRPRPRPTHEPRP
shrunken log2 fold change: 0.746

RRIRARPPRLPRPRPRPTQTPRP
shrunken log2 fold change: 0.69

RRIRFRPPRLPRPRPRPFSVPRP
shrunken log2 fold change: -1.57

RRIRLRPPRLPRPRPRPLPAPRP
shrunken log2 fold change: 0.585

RRIRMRPPRLPRPRPRPACTPRP
shrunken log2 fold change: 0.623

RRIRVRPPRLPRPRPRPYWDPRP
shrunken log2 fold change: 0.0849

RRIRTRPPRLPRPRPRPSFTPRP
shrunken log2 fold change: -0.867

RRIRIRPPRLPRPRPRPLTSPRP
shrunken log2 fold change: -0.188

RRIRMRPPRLPRPRPRPAIHPRP
shrunken log2 fold change: 0.156

RRIRARPPRLPRPRPRPEGNPRP
shrunken log2 fold change: 0.295

RRIRYRPPRLPRPRPRPPMPPRP
shrunken log2 fold change: 0.0328

RRIRNRPPRLPRPRPRPTNRPRP
shrunken log2 fold change: -0.00917

RRIRDRPPRLPRPRPRPYCQPRP
shrunken log2 fold change: -0.226

RRIRYRPPRLPRPRPRPYPVPRP
shrunken log2 fold change: 0.011

RRIRNRPPRLPRPRPRPMYVPRP
shrunken log2 fold change: 0.0786

RRIRPRPPRLPRPRPRPEEDPRP
shrunken log2 fold change: 0.192

RRIRQRPPRLPRPRPRPSDGPRP
shrunken log2 fold change: -0.0586

RRIRHRPPRLPRPRPRPDYNPRP
shrunken log2 fold change: -0.901

RRIRYRPPRLPRPRPRPIWHPRP
shrunken log2 fold change: -1.23

RRIRIRPPRLPRPRPRPKRNPRP
shrunken log2 fold change: -0.0625

RRIRCRPPRLPRPRPRPVCQPRP
shrunken log2 fold change: -0.102

RRIRERPPRLPRPRPRPSLCPRP
shrunken log2 fold change: -0.0545

RRIRPRPPRLPRPRPRPMFSPRP
shrunken log2 fold change: -0.295

RRIRARPPRLPRPRPRPDTTPRP
shrunken log2 fold change: 0.0242

RRIRLRPPRLPRPRPRPLGMPRP
shrunken log2 fold change: 0.0609

RRIRTRPPRLPRPRPRPAPAPRP
shrunken log2 fold change: 0.463

RRIRTRPPRLPRPRPRPVNIPRP
shrunken log2 fold change: -0.136

RRIRVRPPRLPRPRPRPVATPRP
shrunken log2 fold change: 0.212

RRIRGRPPRLPRPRPRPQEAPRP
shrunken log2 fold change: 0.492

RRIRQRPPRLPRPRPRPCHCPRP
shrunken log2 fold change: -0.00822

RRIRGRPPRLPRPRPRPAGMPRP
shrunken log2 fold change: 0.737

RRIRMRPPRLPRPRPRPSWRPRP
shrunken log2 fold change: 0.194

RRIRMRPPRLPRPRPRPCCGPRP
shrunken log2 fold change: 0.215

RRIRDRPPRLPRPRPRPWPVPRP
shrunken log2 fold change: 0.531

RRIRIRPPRLPRPRPRPCSGPRP
shrunken log2 fold change: -0.852

RRIRFRPPRLPRPRPRPRIRPRP
shrunken log2 fold change: -0.075

RRIRMRPPRLPRPRPRPMIHPRP
shrunken log2 fold change: -0.106

RRIRSRPPRLPRPRPRPFISPRP
shrunken log2 fold change: -0.152

RRIRIRPPRLPRPRPRPQKWPRP
shrunken log2 fold change: -0.0915

RRIRQRPPRLPRPRPRPEWCPRP
shrunken log2 fold change: -0.0929

RRIRTRPPRLPRPRPRPLALPRP
shrunken log2 fold change: -0.0853

RRIRSRPPRLPRPRPRPFQAPRP
shrunken log2 fold change: 0.0408

RRIRKRPPRLPRPRPRPLMAPRP
shrunken log2 fold change: 0.635

RRIRGRPPRLPRPRPRPAWPPRP
shrunken log2 fold change: 0.892

RRIRKRPPRLPRPRPRPDMRPRP
shrunken log2 fold change: 0.0676

RRIRTRPPRLPRPRPRPAKKPRP
shrunken log2 fold change: 0.00555

RRIRARPPRLPRPRPRPIRCPRP
shrunken log2 fold change: 0.188

RRIRPRPPRLPRPRPRPIYQPRP
shrunken log2 fold change: -0.35

RRIRMRPPRLPRPRPRPASIPRP
shrunken log2 fold change: -0.015

RRIRLRPPRLPRPRPRPWISPRP
shrunken log2 fold change: 0.0832

RRIRKRPPRLPRPRPRPYFAPRP
shrunken log2 fold change: -0.0674

RRIRERPPRLPRPRPRPVACPRP
shrunken log2 fold change: -0.0696

RRIRARPPRLPRPRPRPKQKPRP
shrunken log2 fold change: 0.529

RRIRNRPPRLPRPRPRPGPPPRP
shrunken log2 fold change: 0.581

RRIRWRPPRLPRPRPRPSMRPRP
shrunken log2 fold change: 0.707

RRIRHRPPRLPRPRPRPFEHPRP
shrunken log2 fold change: -0.0952

RRIRERPPRLPRPRPRPTDLPRP
shrunken log2 fold change: 0.15

RRIRQRPPRLPRPRPRPWRRPRP
shrunken log2 fold change: 0.241

RRIRKRPPRLPRPRPRPYKLPRP
shrunken log2 fold change: -0.281

RRIRARPPRLPRPRPRPQEFPRP
shrunken log2 fold change: -0.0568

RRIRCRPPRLPRPRPRPSFSPRP
shrunken log2 fold change: -0.571

RRIRRRPPRLPRPRPRPDKQPRP
shrunken log2 fold change: 0.0803

RRIRPRPPRLPRPRPRPDNIPRP
shrunken log2 fold change: -0.406

RRIRNRPPRLPRPRPRPLKKPRP
shrunken log2 fold change: -0.0418

RRIRQRPPRLPRPRPRPQGLPRP
shrunken log2 fold change: 0.0739

RRIRYRPPRLPRPRPRPIAGPRP
shrunken log2 fold change: -0.107

RRIRPRPPRLPRPRPRPCAGPRP
shrunken log2 fold change: 0.122

RRIRKRPPRLPRPRPRPRQVPRP
shrunken log2 fold change: 0.029

RRIRRRPPRLPRPRPRPMICPRP
shrunken log2 fold change: -0.0373

RRIRNRPPRLPRPRPRPEGHPRP
shrunken log2 fold change: 0.00677

RRIRQRPPRLPRPRPRPWNAPRP
shrunken log2 fold change: 0.00391

RRIRWRPPRLPRPRPRPAEMPRP
shrunken log2 fold change: 0.213

RRIRRRPPRLPRPRPRPMSDPRP
shrunken log2 fold change: -0.00309

RRIRKRPPRLPRPRPRPPHRPRP
shrunken log2 fold change: 0.501

RRIRVRPPRLPRPRPRPCVHPRP
shrunken log2 fold change: -0.192

RRIRCRPPRLPRPRPRPNLNPRP
shrunken log2 fold change: -0.575

RRIRIRPPRLPRPRPRPTMDPRP
shrunken log2 fold change: -0.118

RRIRYRPPRLPRPRPRPSDNPRP
shrunken log2 fold change: -0.827

RRIRDRPPRLPRPRPRPGGKPRP
shrunken log2 fold change: -0.0179

RRIRERPPRLPRPRPRPHLSPRP
shrunken log2 fold change: -0.19

RRIRARPPRLPRPRPRPDFPPRP
shrunken log2 fold change: 0.102

RRIRERPPRLPRPRPRPFQVPRP
shrunken log2 fold change: -0.212

RRIRNRPPRLPRPRPRPRLCPRP
shrunken log2 fold change: 0.121

RRIRTRPPRLPRPRPRPEQEPRP
shrunken log2 fold change: -0.0113

RRIRPRPPRLPRPRPRPGSSPRP
shrunken log2 fold change: -0.0653

RRIRKRPPRLPRPRPRPSPPPRP
shrunken log2 fold change: 0.305

RRIRYRPPRLPRPRPRPWDPPRP
shrunken log2 fold change: -0.0966

RRIRNRPPRLPRPRPRPHWDPRP
shrunken log2 fold change: -0.136

RRIRERPPRLPRPRPRPRDHPRP
shrunken log2 fold change: 0.162

RRIRPRPPRLPRPRPRPIDMPRP
shrunken log2 fold change: -0.0916

RRIRRRPPRLPRPRPRPCCTPRP
shrunken log2 fold change: -0.0151

RRIRWRPPRLPRPRPRPIAFPRP
shrunken log2 fold change: 0.171

RRIRFRPPRLPRPRPRPPEQPRP
shrunken log2 fold change: -0.0209

RRIRERPPRLPRPRPRPRTEPRP
shrunken log2 fold change: -0.0166

RRIRNRPPRLPRPRPRPQTRPRP
shrunken log2 fold change: 0.0246

RRIRARPPRLPRPRPRPARRPRP
shrunken log2 fold change: 0.388

RRIRHRPPRLPRPRPRPKPFPRP
shrunken log2 fold change: 0.0272

RRIRCRPPRLPRPRPRPTCQPRP
shrunken log2 fold change: 0.00203

RRIRKRPPRLPRPRPRPCALPRP
shrunken log2 fold change: 0.0167

RRIRVRPPRLPRPRPRPMLQPRP
shrunken log2 fold change: 0.154

RRIRTRPPRLPRPRPRPGDQPRP
shrunken log2 fold change: -0.0663

RRIRIRPPRLPRPRPRPPLVPRP
shrunken log2 fold change: 0.0482

RRIRQRPPRLPRPRPRPIQMPRP
shrunken log2 fold change: -0.0176

RRIRPRPPRLPRPRPRPHVFPRP
shrunken log2 fold change: -0.327

RRIRPRPPRLPRPRPRPWRNPRP
shrunken log2 fold change: 0.0809

RRIRHRPPRLPRPRPRPLSMPRP
shrunken log2 fold change: -0.396

RRIRIRPPRLPRPRPRPDSHPRP
shrunken log2 fold change: -0.379

RRIRWRPPRLPRPRPRPDDWPRP
shrunken log2 fold change: 0.288

RRIRFRPPRLPRPRPRPHLKPRP
shrunken log2 fold change: -0.437

RRIRFRPPRLPRPRPRPLLTPRP
shrunken log2 fold change: -0.166

RRIRQRPPRLPRPRPRPFLRPRP
shrunken log2 fold change: -0.0193

RRIRYRPPRLPRPRPRPTQKPRP
shrunken log2 fold change: -0.0476

RRIRCRPPRLPRPRPRPAPYPRP
shrunken log2 fold change: 0.0992

RRIRRRPPRLPRPRPRPHDMPRP
shrunken log2 fold change: -0.103

RRIRGRPPRLPRPRPRPINDPRP
shrunken log2 fold change: -0.211

Reference: the supplement of paper PMC9112550, “Optimization of the antimicrobial peptide Bac7 by deep mutational scanning” (BMC Biology, 2022)
